Measured values from the DeepSol protein solubility set.

Test: soluble on expression in E. coli; label from the status in PepcDB or PDB records
In the case of “CPEIEAQGNECLKEYGGDVGFGFCAPRIFPTICYTRCRENKGAKGGRCRWGQGSNVKCLCDFCGDTPQ”, the “soluble on expression in E. coli” value is reported as “soluble”.
In the case of “METFYTIGRSPRADIRIKSQFVSRIHAVLVRKSSDDVQAAYRIIDGDEDGQSSVNGLMINGKKVQEHIIQTGDEIVMGLEHHHHHH”, the “soluble on expression in E. coli” value is reported as “not soluble”.
For “MHHHHHHSSGVDLGTENLYFQSMSFAVGMFKGQLTTDQVFPYPSVLNEEQTQFLKELVEPVSRFFEEVNDPAKNDALEMVEETTWQGLKELGAFGLQVPSELGGVGLCNTQYARLVEIVGMHDLGVGITLGAHQSIGFKGILLFGTKAQKEKYLPKLASGETVAAFCLTEPSSGSDAASIRTSAVPSPCGKYYTLNGSKLWISNGGLADIFTVFAKTPVTDPATGAVKEKITAFVVERGFGGITHGPPEKKMGIKASNTAEVFFDGVRVPSENVLGEVGSGFKVAMHILNNGRFGMAAALAGTMRGIIAKAVDHATNRTQFGEKIHNFGLIQEKLARMVMLQYVTESMAYMVSANMDQGATDFQIEAAISKIFGSEAAWKVTDECIQIMGGMGFMKEPGVERVLRDLRIFRIFEGTNDILRLFVALQGCMDKGKELSGLGSALKNPFGNAGLLLGEAGKQLRRRAGLGSGLSLSGLVHPELSRSGELAVRALEQFATVVEAKLIKHKKGIVNEQFLLQRLADGAIDLYAMVVVLSRASRSLSEGHPTAQHEKMLCDTWCIEAAARIREGMAALQSDPWQQELYRNFKSISKALVERGGVVTSNPLGF”, the “soluble on expression in E. coli” value was “soluble”.
For “MDPIASVLEKVKSFTKSSQDLVSRHFGFHENPSRLNPIDILKRLQRETFSDLMKLRERQEKVERIISSQKLSKGGPFQETSTHVRGEVDVLGAILLMGNTDEESFNGLNKEGVRPGLLSRFVFETSLRETDRLVAELVAGYNGAGSHRDFLGGELSLAKVFYKADINDWFSAIAIPVGAHFRDIEASTVSSYQGMSLTEVSELGPPLLSQHNGSAIGLTFRKSNITASLAQSMSNVEVEQGLTAPNRCFRTFGQVTCHILRSLKLSLLGCHQVLTSSSNLHSVGAITVPVSFLRRHTATEPEPSAPPLEMSRNMNHVSSSSIALKLDSLMDESTKLGGWIEIQNSREKQVKWSVSITDNPEDEVGWGMSVGGVVDGSRNHDQFQVESYLKFNIGDRFRLSPCLVYHTNSDGRTIGLMLKSHWSL”, the “soluble on expression in E. coli” value was “soluble”.
In the case of “MDRRQRFEKYDWLISKTQSILKNYECPESCNASCCRHHIIDFRRKEYEKILKNVDKESANILKSNAVKSELEGCYKAIVGQCPLLTNSKCRIYNNRPEACRNFPFVIFPDPEAGFGLTLLLCPISVNIIQDYAQWYKSVNLTMYNQLTAVYEQYKNIGENNDFCIQMKEQNLDSFIEFLEKKLEHHHHHH”, the “soluble on expression in E. coli” value is reported as “not soluble”.
With “TPIPHKITSFAEQMRGLRSESKVLELVVIPADHSIAELLKMKENEPVNKLVRVRYAEGEPLQYHTSYIPWKAAPGLAQEECTGSLFELLRTKYNIEISRGTESIEPILTDETISGHLLTNVGAPAFLSESLTYDKNEEVVEYAQIITRGDRTKFTVEQSYHS” the “soluble on expression in E. coli” value was “not soluble”.
In the case of “MAHHHHHHMLRNALSCFLEQLELARLTETLPSNIDYAELVAMVQQRLQGAPGKTLGVFEHLRAKEIRLPEPDNPDYAVASMSAPLTVFLFDIEGTTTPLPFVQKVLMPLAESRVEAYMAAHFPADQAFVDLLTAAAERPSSPLAKAQTAYSKAFTDALATSGARDWKDEAANEVTRSDFCAFFHHQIKRGADHAAVKVVQAAIWAEVFAEGKLQSPVFPDVNTFFRFVGGPAMAERTRIALYSSGSVAAQKLVMGHTSYGDLNPFITAYFDPLLVGTKLMPKSYMKIRTLLVEQLDIPPESMHIVFVTDNTSEASAAETSGAVESAILCVRPLNDWITFDTMLSINVPYIMSFTQLMQRNCVVDMAKLVSDTKECIKQHNIS”, the “soluble on expression in E. coli” value is reported as “soluble”.
For “MDEVGVASEHLPDLRDRTGHAVNLAVWGDHGPVLVRWDYGAHALPITIRVGATMPLLTSAIGRVYLAHLPATMTTSIVETELETLGTNAPSKSDVARLRATVLEQGVATISGEVIPGVMSVAAPVFPAGQSIPLAVAVALPSSLGDTATVAEVTLELLRTTKAISEDYGSVGGAAGGPIA”, the “soluble on expression in E. coli” value was “not soluble”.
For “MDIPQTKQDLELPKLAGTWHSMAMATNNISLMATLKAPLRVHITSLLPTPEDNLEIVLHRWENNSCVEKKVLGEKTENPKKFKINYTVANEATLLDTDYDNFLFLCLQDTTTPIQSMMCQYLARVLVEDDEIMQGFIRAFRPLPRHLWYLLDLKQMEEPCRF”, the “soluble on expression in E. coli” value was “soluble”.
With “MGSDKIHHHHHHMNNSLAFNHDTLPQKVMFGYGKSSAFLKQEVERRGSAKVMVIAGEREMSIAHKVASEIEVAIWHDEVVMHVPIEVAERARAVATDNEIDLLVCVGGGSTIGLAKAIAMTTALPIVAIPTTYAGSEATNVWGLTEAARKTTGVDLKVLPETVIYDSELTMSLPVEMSVASGLNGLAHCIDSLWGPNADPINAVLAAEGIRALNQGLPKIVANPHSIEGRDEALYGAYLAAVSFASAGSGLHHKICHTLGGTFNLPHAQTHATVLPYVLAFNAGDAPEAERRAAAAFGTDTALEGLQRLRLSVNAPKRLSDYGFEASGIAEAVDVTLEKVPANNPRPVTRENLSRLLEAALNGEDPAVLSAVLSN” the “soluble on expression in E. coli” value was “not soluble”.
In the case of “MSMIDIDPPSFQSPRPIAGDDGNRRTVLYGDYTVFSVFQPVFSVSHRRAIGYHASLRAHDSQGNQVPSHDVFTQAARRGDLLELGRLAESLHLGNFHTFDSHDEWLFLSLHPAALMDTVYGDALLANLKALGLPPQRVVLEVPEQAGGETPRFAAIVDGLRKAGFLIALGGFGAKHSNIDRVWHLHPDIVTLDRGILAQASEHSHLERVLPGLVSLLHESGQLVLMGGITTEREALIALECDVDFVQGQYFAGP”, the “soluble on expression in E. coli” value is reported as “not soluble”.
For “MGSDKIHHHHHHMKKQWNEFVRDRMSEKNLKQEDIAEAIERTQGAVGHWLTGRRSPNFMEVAKMLNATGTDQVILNSDGTIEDIEFIGIPKKGLVKVIGEATMGTDGSVDIEEIHVGYIDIFTTDPKAFCLRVKGSSMEPRIHSGEFVLVEPQSPFSNGDDVFIRTKDGKNMIKILDYQKDGEYRFSSINNDHKPFNLAIDEVELVYYVAGILKKSRFVDLEP”, the “soluble on expression in E. coli” value was “not soluble”.
For “AIAEEWDVPQMKKEVESLKYQLAFQREMASKTIPELLKWIEDGIPKDPFLNPDLMKNNPWVEKGKCTIL”, the “soluble on expression in E. coli” value was “soluble”.
In the case of “AHHHHHHGSENPYEIVGVVAREILDSRGNPTVEVDVYTHVGMGRAAVPSGASTGTHEALELRDGGKRYHGKGVRRAVENVNKIIAPELIGMDVRWQREIDALLLELDGTENKSNVGANAILAVSLAVAKAAANSLELPLYQYLGGVNAYVLPVPLSNVINGGVHAGNDLDFQEFMIMPIGADSFREAIRWVSETYHVLKKVIMEKYGKNAVNVGDEGGFAPPMKEVTEPLDVLIKAIEEAGYKPGDEIALALDVASSELFNEETGKYVVGGKEYDRGELLELYKDLTSTYPIVSIEDPFHEEDWEGFVMITKELGHKVQIVGDDLFVTNPKRLRKGIELGAANALLLKVNQIGTLSEAMDAAFTAFRAGYGVIVSHRSGETEDATIADLAVALNAGQIKTGAPARSDRNAKYNQLIRIEEELEGVAVYAGKRFRKVFF”, the “soluble on expression in E. coli” value is reported as “soluble”.
In the case of “MRRVLFSCFCGLLWSSSGWAVDPLGTININLHGNVVDFSCTVNTADIDKTVDLGRWPTTQLLNAGDTTALVPFSLRLEGCPPGSVAILFTGTPASDTNLLALDDPAMAQTVAIELRNSDRSRLALGEASPTEEVDANGNVTLNFFANYRALASGVRPGVAKADAIFMINYN”, the “soluble on expression in E. coli” value is reported as “not soluble”.
For “WGYEAVGRFTSWEQIATYPIDNDRKGNKTVVPGDIMYKDVNGDGVINYMDERPIGYRSDSTPTLNFGINLSASWKGFDLAMDWTGSGMTSWQQQYETARPFQNDGNSPEEVFKDAWHLADIWDADSQLIPGKYPLIRLNNEETSAYDKSTFWLHNVKYIKLRNLEFGYTLPKRIVAKAGISNLRLYVSGTNLFSISNIPFMDPECIDSNGLDYPTMRVVNLGINLKF”, the “soluble on expression in E. coli” value was “not soluble”.
For “MMSMKIFETTAPHPEASLLTAFSKNALDRFAEKRTEECVAEALKVDGTHIFAFSGNRLVLKHDEQVIDPLFSAYELAELQPDFDNAVLLGYRETGEPRIAVPVAVAEDQLASHYKLADARTLYRDHLLDEELLSEVAQAVSLTHWNADNRFCGRCGGTMEQRIGGYKRICASCSHTIFPRTDPVVIMMTIDIERDLCLLGRGAHFASGMYSCLAGFVEPGETIEQAVRRETHEESGVEIGRVRYHASQPWPMPHTLMIGCYAEALSSDIARDEIELEDCRWFTREEVAKMLEAPAGEGFSAPPIGAIAHRLMRDWVEWPE”, the “soluble on expression in E. coli” value was “soluble”.
With “MSLLNSVSAIFLATAMTFAALPQDAQAQDYRFNTVQVDGNQRIETSTIISRMGIERGKTISAGALNDAYQRLLDSGVFETVELIPRGNTLVVKVVEHPTINRINFEGNRRVKDETLEGAIGSQSRRVFTPEQAERDAATIAEIYSTQGRVAATVVPRIIRRSDNRVDLVFEISEGDTIEIERVSFVGNRVFSDRRLRRILETKQAGFLRTFIRSDTFIADRIEFDKQVLRDFYLSRGHVDFRVNSANVEFTRERDAFFLVMDVTEGQQFSFGKITTVSEIPGVEAPAYQDVLKIKPGVVYSPSLVENSIARMERLGLKNGVDFLRVEPRITRNDRDLTLDIEFALVKGPRIFVERIDIEGNTTTLDQVIRRQFRTVEGDPFNPREIRESAERIRALGFFGDANVETREGSTPAQVIVDVDVEEKPTGSLSFGGSYSVSDGFGVAIGLTEDNWLGRGQRLGLTLSTAQDAEQYVLSFTEPQLLGRDLRFDIDLGVANTNSSFASYDTERAFFAPGITFRLGELSTLQLRYRWEASEMVQRTATTVSGAVIASEIAQGKKSSSALGLTYTYDSRIGGLNPNAGVLFEVGVDAAGLGGDNEYFKTSAKAIAQTRVWHEEITLRASLDVGAFTWQGSGFSRAIDRFVIGPNTFRGFEPAGVGPRDQSNGVDDAIGGNYYAVARFEAEFPLGLPEELGLRGGLFYDVGNVWDVSDVNTAGGTIVGADGSFRHVIGFSLLWTTAFGPLRFNFSKALKKETFDKEQSFDLTIQAREGHHHHHH” the “soluble on expression in E. coli” value was “not soluble”.
In the case of “GSSCGNDESDPDSTVTIAMATVEKQPQYDAPYLVLDNGEKLWVVQHIVPYRDLKAGERIFGNYSFLEAGESGFAYNIRLNDYTLVPVQKIIGLNPDNMDSIGNMKVQIKDMWPSDDYLNVRFMLNFPSPQKPILNLVVNEMIPWTKDGYAHLELRYNNNGSQGRLVPGMVSFKLDDYSPENSELKGIKVLVNPVDGEEKTYIFSYPLTGEDVPGFNPLDLAELK”, the “soluble on expression in E. coli” value is reported as “soluble”.
For “MEYPRVMIRFAVIGTNWITRQFVEAAHESGKYKLTAVYSRSLEQAQHFANDFSVEHLFTSLEAMAESDAIDAVYIASPNSLHFSQTQLFLSHKIHVICEKPLASNLAEVDAAIACARENQVVLFEAFKTACLPNFHLLRQALPKAGKLRKVFFNYCQYSSRYQRYLDGENPNTFNPAFSNGSIMDIGFYCLASAVALFGEPKSVQATASLLASGVDAHGVVVMDYGDFSVTLQHSKVSDSVLGSEIQGEAGSLVIEKLSECQKVCFVPRGSQMQDLTQPQHINTMLYEAELFATLVDEHLVDHPGLAVSRITAKLLTEIRRQTGVIFPADSVKLYLPK”, the “soluble on expression in E. coli” value was “not soluble”.
In the case of “MGHHHHHHSHMSGTEEAILGGRDSHPAAGGGSVLCFGQCQYTAEEYQAIQKALRQRLGPEYISSRMAGGGQKVCYIEGHRVINLANEMFGYNGWAHSITQQNVDFVDLNNGKFYVGVCAFVRVQLKVRGWSRPAARKDQWVVGEGWFIS”, the “soluble on expression in E. coli” value is reported as “not soluble”.
With “MSLNFYYATSILIKEVVVSTKWLLGISLMLSTVAQANENSNQDTDISIPSPWKHQVEFGYQAHSGNTESESLNSRLKSEYTMGRHRTYGEWKFYKLDKNGKEDKRQSTFAFQSDYKLGPKTYLYGSFYGTNSRYTAYFKDHTLSGGLGYQFAYTDEMVLELELGPGFRYQKPNLDEIDDDDIVFPDLVQEAIFRSNLKAEWQALNNLRFEAEMTMVSGRSNTSLDSNISLTNDITDHIALKIRQSRQYHNRMPEGLSKADSVISVNLLFEFEGHHHHHH” the “soluble on expression in E. coli” value was “not soluble”.
